The values that follow come from publication PMC9418424.

The experiment addresses (AcA4)2KD amphiphilic peptide ((Ac-Ala-Ala-Ala-Ala)2-Lys-Asp-OH). Put plainly: dynamic light scattering.

Take “(AcA4)2KD amphiphilic peptide ((Ac-Ala-Ala-Ala-Ala)2-Lys-Asp-OH)”: the critical aggregation concentration came out at 0.8 mM.
